Like-named read-outs stand apart in the source and are kept apart here.
Legend:
6631.V3.C10 (HIV-1) [1] = biological target: 6631.V3.C10 (HIV-1)
CAAN.A2 (HIV-1) [2] = biological target: CAAN.A2 (HIV-1)
[3] = biological target: gp120 of X2088 (HIV-1 strain X2088.c9)
6631.V3.C10 (HIV-1) [4] = biological target: 6631.V3.C10 (HIV-1); remark: listed apart in the source
D167N (HIV-1) = test: gp120 capture ELISA
D279A (HIV-1) = test: gp120 capture ELISA
D368A (HIV-1) = test: gp120 capture ELISA
D457A (HIV-1) = test: gp120 capture ELISA
D474A (HIV-1) = test: gp120 capture ELISA
E370A (HIV-1) = test: gp120 capture ELISA
G366A (HIV-1) = test: gp120 capture ELISA
G367A (HIV-1) = test: gp120 capture ELISA
G471A (HIV-1) = test: gp120 capture ELISA
G472A (HIV-1) = test: gp120 capture ELISA
G473A (HIV-1) = test: gp120 capture ELISA
I371A (HIV-1) = test: gp120 capture ELISA
I467A (HIV-1) = test: gp120 capture ELISA
K282A (HIV-1) = test: gp120 capture ELISA
M373A (HIV-1) = test: gp120 capture ELISA
M475A (HIV-1) = test: gp120 capture ELISA
N197T (HIV-1) = test: gp120 capture ELISA
N262A (HIV-1) = test: gp120 capture ELISA
N280A (HIV-1) = test: gp120 capture ELISA
N332A (HIV-1) = test: gp120 capture ELISA
P369A (HIV-1) = test: gp120 capture ELISA
R469A (HIV-1) = test: gp120 capture ELISA
R476A (HIV-1) = test: gp120 capture ELISA
S365A (HIV-1) = test: gp120 capture ELISA
T283A (HIV-1) = test: gp120 capture ELISA
V372A (HIV-1) = test: gp120 capture ELISA
[5] = biological target: monomeric gp120^JRCSF (HIV-1 strain JRCSF) (UniProt P20871); test: gp120 capture ELISA
6631.V3.C10 (HIV-1) [6] = biological target: 6631.V3.C10 (HIV-1); remark: listed apart in the source
[7] = biological target: gp120 of X2088 (HIV-1 strain X2088.c9); remark: listed apart in the source
CAAN.A2 (HIV-1) [8] = biological target: CAAN.A2 (HIV-1); remark: listed apart in the source
[9] = biological target: gp120 Resurfaced Stabilized Core (RSC3); test: ELISA on coated RSC3
CentrB, centromere B = test: Luminex AtheNA Multi-Lyte ANA test
Histone = test: Luminex AtheNA Multi-Lyte ANA test
Jo1 antigen = test: Luminex AtheNA Multi-Lyte ANA test
RNP, ribonucleoprotein = test: Luminex AtheNA Multi-Lyte ANA test
[10] = biological target: SSA, Sjogren's syndrome antigen A; test: Luminex AtheNA Multi-Lyte ANA test
[11] = biological target: SSB, Sjogren syndrome antigen B (Homo sapiens (Human)) (UniProt P05455); test: Luminex AtheNA Multi-Lyte ANA test
Scl 70, scleroderma 70 = test: Luminex AtheNA Multi-Lyte ANA test
Sm, Smith antigen = test: Luminex AtheNA Multi-Lyte ANA test

Chain of SSB, Sjogren syndrome antigen B (Homo sapiens (Human)) (P05455 whole entry): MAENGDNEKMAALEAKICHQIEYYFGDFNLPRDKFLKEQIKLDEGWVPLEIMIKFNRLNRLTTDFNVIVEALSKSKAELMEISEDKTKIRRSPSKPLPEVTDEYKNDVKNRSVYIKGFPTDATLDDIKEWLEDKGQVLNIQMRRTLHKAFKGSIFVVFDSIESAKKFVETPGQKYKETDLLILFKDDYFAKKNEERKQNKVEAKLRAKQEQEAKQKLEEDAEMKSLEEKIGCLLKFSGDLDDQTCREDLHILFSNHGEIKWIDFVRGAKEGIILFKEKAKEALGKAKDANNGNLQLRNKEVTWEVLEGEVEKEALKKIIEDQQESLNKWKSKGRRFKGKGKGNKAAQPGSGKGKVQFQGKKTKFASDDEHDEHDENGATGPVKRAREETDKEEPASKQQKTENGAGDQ
Chain of CentrB, centromere B (P07199 2-599): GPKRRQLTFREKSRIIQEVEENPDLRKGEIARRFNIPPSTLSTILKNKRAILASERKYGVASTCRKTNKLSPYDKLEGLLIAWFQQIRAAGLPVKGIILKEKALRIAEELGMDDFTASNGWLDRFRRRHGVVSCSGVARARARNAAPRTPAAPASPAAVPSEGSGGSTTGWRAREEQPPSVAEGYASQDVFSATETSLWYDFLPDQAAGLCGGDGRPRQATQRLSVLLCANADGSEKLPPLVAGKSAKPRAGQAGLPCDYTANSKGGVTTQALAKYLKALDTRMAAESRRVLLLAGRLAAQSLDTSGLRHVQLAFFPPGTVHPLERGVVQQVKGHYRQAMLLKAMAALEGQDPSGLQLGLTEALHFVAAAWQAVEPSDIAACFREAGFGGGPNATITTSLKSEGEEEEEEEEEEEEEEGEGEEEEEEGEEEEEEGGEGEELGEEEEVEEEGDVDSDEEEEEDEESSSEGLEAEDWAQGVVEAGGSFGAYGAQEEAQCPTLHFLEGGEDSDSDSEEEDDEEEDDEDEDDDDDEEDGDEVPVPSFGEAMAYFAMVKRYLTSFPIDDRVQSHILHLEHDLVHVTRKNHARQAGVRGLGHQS

Q: What does the source list for “N6 heavy chain with VRC27 light chain (antibody)”?
A: neutralisation IC50 (6631.V3.C10 (HIV-1) [1]): 0.285 µg/mL; neutralisation IC50 (CAAN.A2 (HIV-1) [2]): 0.278 µg/mL; neutralisation IC50 [3]: > 50 µg/mL

Q: For N6 with CDRH1 of VRC27 (antibody), which neutralisation IC50 (6631.V3.C10 (HIV-1) [4]) is on record?
A: 0.122 µg/mL

Q: How did the neutralisation IC50 (CAAN.A2 (HIV-1) [2]) turn out when VRC27 (antibody) was run?
A: 0.264 µg/mL

Q: What about the Binding affinity relative to WT (%) (D167N (HIV-1)) of the same substance?
A: 37%

Q: And the Binding affinity relative to WT (%) (D279A (HIV-1))?
A: 7%

Q: And the Binding affinity relative to WT (%) (D368A (HIV-1))?
A: 0%

Q: What about the Binding affinity relative to WT (%) (D457A (HIV-1)) of the same substance?
A: 19%

Q: And the Binding affinity relative to WT (%) (D474A (HIV-1))?
A: 0%

Q: What about the Binding affinity relative to WT (%) (E370A (HIV-1)) of the same substance?
A: 2%

Q: And the Binding affinity relative to WT (%) (G366A (HIV-1))?
A: 3%

Q: What about the Binding affinity relative to WT (%) (G367A (HIV-1)) of the same substance?
A: 0%

Q: And the Binding affinity relative to WT (%) (G471A (HIV-1))?
A: 131%

Q: And the Binding affinity relative to WT (%) (G472A (HIV-1))?
A: 0%

Q: What about the Binding affinity relative to WT (%) (G473A (HIV-1)) of the same substance?
A: 6%

Q: And the Binding affinity relative to WT (%) (I371A (HIV-1))?
A: 0%

Q: What about the Binding affinity relative to WT (%) (I467A (HIV-1)) of the same substance?
A: 27%

Q: What about the Binding affinity relative to WT (%) (K282A (HIV-1)) of the same substance?
A: 57%

Q: What about the Binding affinity relative to WT (%) (M373A (HIV-1)) of the same substance?
A: 23%

Q: What about the Binding affinity relative to WT (%) (M475A (HIV-1)) of the same substance?
A: 35%

Q: What about the Binding affinity relative to WT (%) (N197T (HIV-1)) of the same substance?
A: 28%

Q: And the Binding affinity relative to WT (%) (N262A (HIV-1))?
A: 0%

Q: What about the Binding affinity relative to WT (%) (N280A (HIV-1)) of the same substance?
A: 0%

Q: And the Binding affinity relative to WT (%) (N332A (HIV-1))?
A: 57%

Q: And the Binding affinity relative to WT (%) (P369A (HIV-1))?
A: 38%

Q: And the Binding affinity relative to WT (%) (R469A (HIV-1))?
A: 0%

Q: And the Binding affinity relative to WT (%) (R476A (HIV-1))?
A: 37%

Q: And the Binding affinity relative to WT (%) (S365A (HIV-1))?
A: 107%

Q: What about the Binding affinity relative to WT (%) (T283A (HIV-1)) of the same substance?
A: 15%

Q: What about the Binding affinity relative to WT (%) (V372A (HIV-1)) of the same substance?
A: 15%

Q: And the Binding affinity relative to WT (%) [5]?
A: 100%

Q: How did the neutralisation IC50 (6631.V3.C10 (HIV-1) [6]) turn out when N6 with CDRL1 of VRC01 (antibody) was run?
A: > 50 µg/mL

Q: And the neutralisation IC50 [7]?
A: > 50 µg/mL

Q: With VRC07 N6CDRH3 (antibody) as the substance, how does the neutralisation IC50 (CAAN.A2 (HIV-1) [8]) read?
A: 2.18 µg/mL

Q: Which results are given for 2G12 (antibody)?
A: Binding affinity relative to WT (%) (N332A (HIV-1)): 3%; Binding affinity relative to WT (%) [5]: 100%; EC50 (read off the curve) [9]: 0.03 µg/mL

Q: For “N6 heavy chain with 12A21 light chain (antibody)”, which neutralisation IC50 (6631.V3.C10 (HIV-1) [1]) is on record?
A: 3.11 µg/mL

Q: What about the neutralisation IC50 (CAAN.A2 (HIV-1) [2]) of the same substance?
A: 3.71 µg/mL

Q: What about the neutralisation IC50 [3] of the same substance?
A: 0.314 µg/mL

Q: With “N6 heavy chain with VRC01 light chain (antibody)” as the substance, how does the neutralisation IC50 (6631.V3.C10 (HIV-1) [1]) read?
A: 1.04 µg/mL

Q: What about the neutralisation IC50 (CAAN.A2 (HIV-1) [2]) of the same substance?
A: 0.211 µg/mL

Q: What about the neutralisation IC50 [3] of the same substance?
A: > 50 µg/mL

Q: For 3BNC117 (antibody), which Binding affinity relative to WT (%) (D167N (HIV-1)) is on record?
A: 95%

Q: What about the Binding affinity relative to WT (%) (D279A (HIV-1)) of the same substance?
A: 0%

Q: And the Binding affinity relative to WT (%) (D368A (HIV-1))?
A: 16%

Q: And the Binding affinity relative to WT (%) (D457A (HIV-1))?
A: 84%

Q: What about the Binding affinity relative to WT (%) (D474A (HIV-1)) of the same substance?
A: 38%

Q: And the Binding affinity relative to WT (%) (E370A (HIV-1))?
A: 31%

Q: And the Binding affinity relative to WT (%) (G366A (HIV-1))?
A: 27%

Q: What about the Binding affinity relative to WT (%) (G367A (HIV-1)) of the same substance?
A: 25%

Q: And the Binding affinity relative to WT (%) (G471A (HIV-1))?
A: 164%

Q: What about the Binding affinity relative to WT (%) (G472A (HIV-1)) of the same substance?
A: 56%

Q: And the Binding affinity relative to WT (%) (G473A (HIV-1))?
A: 40%

Q: What about the Binding affinity relative to WT (%) (I371A (HIV-1)) of the same substance?
A: 40%

Q: What about the Binding affinity relative to WT (%) (I467A (HIV-1)) of the same substance?
A: 87%

Q: And the Binding affinity relative to WT (%) (K282A (HIV-1))?
A: 3%

Q: What about the Binding affinity relative to WT (%) (M373A (HIV-1)) of the same substance?
A: 133%

Q: What about the Binding affinity relative to WT (%) (M475A (HIV-1)) of the same substance?
A: 169%

Q: What about the Binding affinity relative to WT (%) (N197T (HIV-1)) of the same substance?
A: 101%

Q: And the Binding affinity relative to WT (%) (N262A (HIV-1))?
A: 33%

Q: What about the Binding affinity relative to WT (%) (N280A (HIV-1)) of the same substance?
A: 36%

Q: And the Binding affinity relative to WT (%) (N332A (HIV-1))?
A: 82%

Q: And the Binding affinity relative to WT (%) (P369A (HIV-1))?
A: 75%

Q: And the Binding affinity relative to WT (%) (R469A (HIV-1))?
A: 97%

Q: And the Binding affinity relative to WT (%) (R476A (HIV-1))?
A: 171%

Q: And the Binding affinity relative to WT (%) (S365A (HIV-1))?
A: 90%

Q: What about the Binding affinity relative to WT (%) (T283A (HIV-1)) of the same substance?
A: 71%

Q: And the Binding affinity relative to WT (%) (V372A (HIV-1))?
A: 62%

Q: What about the Binding affinity relative to WT (%) [5] of the same substance?
A: 100%

Q: Which results are given for 4E10 (antibody)?
A: Luminex reactivity (unit not given) (CentrB, centromere B): 3; Luminex reactivity (unit not given) (Histone): 9; Luminex reactivity (unit not given) (Jo1 antigen): 146; Luminex reactivity (unit not given) (RNP, ribonucleoprotein): 9; Luminex reactivity (unit not given) [10]: 31; Luminex reactivity (unit not given) [11]: 161; Luminex reactivity (unit not given) (Scl 70, scleroderma 70): 8; Luminex reactivity (unit not given) (Sm, Smith antigen): 6.6

Q: For “CD4-Ig (from UniProt P01730 26-203) (Fc fusion; other documents disagree on this pair)”, which Binding affinity relative to WT (%) [5] is on record?
A: 100%

Q: With VRC01 ARP60-62GGGHC (antibody) as the substance, how does the neutralisation IC50 (CAAN.A2 (HIV-1) [8]) read?
A: 3.23 µg/mL

Q: How did the neutralisation IC50 (CAAN.A2 (HIV-1) [8]) turn out when VRC01 N6CDRH3 (antibody) was run?
A: 2.23 µg/mL

Q: With N6 with FRL1 of VRC01 (antibody) as the substance, how does the neutralisation IC50 (6631.V3.C10 (HIV-1) [6]) read?
A: 0.642 µg/mL

Q: What about the neutralisation IC50 (CAAN.A2 (HIV-1) [8]) of the same substance?
A: 1.01 µg/mL

Q: And the neutralisation IC50 [7]?
A: 1.14 µg/mL
